This note sets out measurements from patent US20200385459A1 (University of Texas, published 2020).

“And” between values parts separate entries of the source, which are not always exact repeats. Identical values can stand only once.

For test [1], the target named is T1, His-tagged recombinant human LRP10 protein, LRP10-516H (human) (UniProt Q7Z4F1).
T1 sequence (looked up): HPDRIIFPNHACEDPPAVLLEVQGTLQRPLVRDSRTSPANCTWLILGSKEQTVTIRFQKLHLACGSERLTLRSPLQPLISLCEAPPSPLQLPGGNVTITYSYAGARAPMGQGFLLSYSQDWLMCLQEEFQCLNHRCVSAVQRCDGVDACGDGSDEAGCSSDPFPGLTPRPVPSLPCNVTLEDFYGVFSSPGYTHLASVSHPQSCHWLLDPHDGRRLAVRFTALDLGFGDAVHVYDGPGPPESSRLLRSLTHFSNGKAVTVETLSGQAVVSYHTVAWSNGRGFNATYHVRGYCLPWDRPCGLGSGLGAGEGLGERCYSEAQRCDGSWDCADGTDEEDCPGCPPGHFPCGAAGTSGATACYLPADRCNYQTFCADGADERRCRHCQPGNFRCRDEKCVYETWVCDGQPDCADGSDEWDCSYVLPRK
Put plainly: ELISA, coated LRP10, antibody at 15.63 ng/ml. Background: In an ELISA, binding on a coated surface is turned into a signal by an enzyme label.

For test [2], the target named is T1, His-tagged recombinant human LRP10 protein, LRP10-516H (human). The experiment in a line: ELISA, coated LRP10, antibody at 62.5 ng/ml.
For test [3] the target is unchanged. Put plainly: ELISA, coated LRP10, antibody at 0.24 ng/ml.
The target is the same in test [4]. The experiment in a line: ELISA, coated LRP10, antibody at 0 ng/ml (background well).
Test [5] has the same target. Put plainly: ELISA, coated LRP10, antibody at 0.98 ng/ml.
The target is the same in test [6]. The experiment in a line: ELISA, coated LRP10, antibody at 1000 ng/ml.
The target is the same in test [7]. The experiment in a line: ELISA, coated LRP10, antibody at 250 ng/ml.
Test [8] shares this target. The experiment in a line: ELISA, coated LRP10, antibody at 3.91 ng/ml.
Test [9] has as its target T2, His-tagged recombinant human LRP10 protein, LRP10-516H (human, UniProt Q7Z4F1 17-440).
T2 construct: The ELISA protocol calls the coated protein 'LR10'; also called target protein LR10; target antigen; not shown: His tag
T2 sequence (looked up): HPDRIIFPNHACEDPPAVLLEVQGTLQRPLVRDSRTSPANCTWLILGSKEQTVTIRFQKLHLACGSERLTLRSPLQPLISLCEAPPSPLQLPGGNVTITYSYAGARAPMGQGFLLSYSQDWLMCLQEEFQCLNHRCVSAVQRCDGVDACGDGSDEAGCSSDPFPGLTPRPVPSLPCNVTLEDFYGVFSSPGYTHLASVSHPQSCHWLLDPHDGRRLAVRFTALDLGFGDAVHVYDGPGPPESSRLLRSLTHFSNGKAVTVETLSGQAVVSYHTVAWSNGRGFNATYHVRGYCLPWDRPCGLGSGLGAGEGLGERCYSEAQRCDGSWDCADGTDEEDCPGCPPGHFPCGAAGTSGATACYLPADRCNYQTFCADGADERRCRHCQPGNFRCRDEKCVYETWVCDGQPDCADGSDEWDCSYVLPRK
Put plainly: ELISA, coated LRP10, serial dilution of antibody. On the procedure:
1) Coat the target protein LR10 (1 μg/ml, 0.1 μg/well) in a certain coating buffer (0.1 M NaHCO₃, pH 9.6). Incubate overnight at 4° C. [0234] 2) Wash the wells 3 times with 300 μL washing buffer (0.1% PBST) per well. [0235] 3) Block the wells with 300 μL blocking buffer (3% BSA) for 1 h at 37° C. [0236] 4) Discard the blocking buffer and wash the plate 3 times with the washing buffer, slapping the plate face-down onto a clean section of paper towel each time. [0237] 5) Add 100 μL of a serial dilution of antibodies per well. Incubate at 37° C. for 1 h. [0238] 6) Wash 3 times with the washing buffer. Dilute HRP-goat anti-human IgG (1:4,000) in the blocking buffer (3% BSA). Add 100 μL of diluted conjugate per well and incubate at 37° C. for 1 h. […] 7) Wash 3 times with the washing buffer. Dissolve Tetramethylbenzidine (TMB) substrate (Sigma, USA) in […] citrate-phosphate buffer and add 1 μL/mL H₂O₂ to the solution. Add 100 μL of substrate solution per well and incubate at room temperature for 15 minutes. [0240] 8) Add 100 μL of 2 mol/L H₂SO₄ solution to stop the reaction. [0241] 9) Read plates using a microplate reader set at 490 nm.
For the 8 well-expressed antibodies, we tested their binding activities to the target antigen by ELISA (Table 7 and FIG. 11).

Test [10] addresses T3, mouse LRP10 (Lrp10) on C57BL/6 T cells (mouse (Mus musculus), UniProt Q7TQH7 18-713).
T3 sequence (looked up): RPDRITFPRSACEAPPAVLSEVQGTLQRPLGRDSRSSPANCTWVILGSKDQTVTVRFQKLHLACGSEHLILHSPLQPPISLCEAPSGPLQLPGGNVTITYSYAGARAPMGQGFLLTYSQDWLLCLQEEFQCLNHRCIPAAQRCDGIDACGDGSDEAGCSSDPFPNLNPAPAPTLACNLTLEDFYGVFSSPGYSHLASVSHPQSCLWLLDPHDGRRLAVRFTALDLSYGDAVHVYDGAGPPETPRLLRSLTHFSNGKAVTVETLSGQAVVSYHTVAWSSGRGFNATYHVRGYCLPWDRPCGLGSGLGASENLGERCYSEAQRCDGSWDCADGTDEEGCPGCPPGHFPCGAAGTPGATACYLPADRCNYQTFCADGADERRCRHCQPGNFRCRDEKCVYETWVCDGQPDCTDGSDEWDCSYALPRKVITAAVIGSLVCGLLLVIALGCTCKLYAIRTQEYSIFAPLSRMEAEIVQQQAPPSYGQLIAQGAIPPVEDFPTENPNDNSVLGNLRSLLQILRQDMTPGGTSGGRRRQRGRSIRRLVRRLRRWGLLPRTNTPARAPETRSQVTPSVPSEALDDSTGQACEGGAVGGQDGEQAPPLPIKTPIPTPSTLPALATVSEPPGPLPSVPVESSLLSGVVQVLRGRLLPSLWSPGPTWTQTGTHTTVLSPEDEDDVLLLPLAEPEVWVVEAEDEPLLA
The experiment in a line: cell-based or functional assay.

Test [11] concerns the target T2, His-tagged recombinant human LRP10 …. The experiment in a line: ELISA on coated LRP10.

B1: Clone 6 (AB6) (antibody, human IgG1, V domains shown)
VH: EVQLLESGGGLVQPGGSLRLSCAASGFTFSSYAMSWVRQAPGKGLEWVSSIPSRGQATKYADSVKGRFTISRDNSKNTLYLQMNSLRAEDTAVYYCAKSRHTFDYWGQGTLVTVSS
VL: DIQMTQSPSSLSASVGDRVTITCRASQSISSYLNWYQQKPGKAPKLLIYDASLLQSGVPSRFSGSGSGTDFTLTISSLQPEDFATYYCQQTSAGPGTFGQGTKVEIK
In the case of B1, the ELISA signal (plate read at 490 nm) is 0.0656 and 0.0659 in test [1]; 0.09 and 0.0989 in test [2]; 0.0606 and 0.0573 in [3]; 0.0595 and 0.0594 in test [4]; 0.0588 and 0.0556 in [5]; 0.289 and 0.349 in [6]. For the same molecule, the ELISA signal (plate read at 490 nm) in test [7] was 0.128 and 0.133; in test [8] it was 0.0615 and 0.0582.

B2: Clone 1 (AB1) (antibody, V domains shown)
VH: EVQLLESGGGLVQPGGSLRLSCAASGFTFSSQAMSWVRQAPGKGLEWVSSIPPGGPNTKYADSVKGRFTISRDNSKNTLYLQMNSLRAEDTAVYYCAKSYPSFDYWGQGTLVTVSS
VL: DIQMTQSPSSLSASVGDRVTITCRASQSISSYLNWYQQKPGKAPKLLIYNASDLQSGVPSRFSGSGSGTDFTLTISSLQPEDFATYYCQQSSRTPTTFGQGTKVEIK
notes: also called AB1 (L1 + H1); AB1: L1 + H1
In the case of B2, the EC50 in [9] was determined as 0.013 µg/mL.

B3: Clone 3 (AB3) (antibody, human IgG1, V domains shown)
VH: EVQLLESGGGLVQPGGSLRLSCAASGFTFSSYAMSWVRQAPGKGLEWVSQIGTMGRPTTYADSVKGRFTISRDNSKNTLYLQMNSLRAEDTAVYYCAKSGKKFDYWGQGTLVTVSS
VL: DIQMTQSPSSLSASVGDRVTITCRASQSISSYLNWYQQKPGKAPKLLIYRASRLQSGVPSRFSGSGSGTDFTLTISSLQPEDFATYYCQQPTSLPLTFGQGTKVEIK
notes: Expressed as a full antibody in 293F cells, protein A purified; also called AB3 (L3 + H2); AB3: L3 + H2
On to B3, for which the EC50 in [9] turned out to be 0.0349 µg/mL.

B4: Clone 7 (AB7) (antibody, human IgG1, V domains shown)
VH: EVQLLESGGGLVQPGGSLRLSCAASGFTFSSYAMSWVRQAPGKGLEWVSSIATTGNTTYYADSVKGRFTISRDNSKNTLYLQMNSLRAEDTAVYYCAKNTATFDYWGQGTLVTVSS
VL: DIQMTQSPSSLSASVGDRVTITCRASQSISSYLNWYQQKPGKAPKLLIYAASTLQSGVPSRFSGSGSGTDFTLTISSLQPEDFATYYCQQNDYYPTTFGQGTKVEIK
notes: Expressed as a full antibody in 293F cells, protein A purified; also called AB7 (L7 + H6); AB7: L7 + H6
Consider B4, for which, in test [10], the “migration rate of T cells in response to SDF-1, transwell” value (shortened to “migration rate of T cells in response”) is about 2 fold higher than vehicle. Also, the EC50 in test [9] turned out to be 0.0357 µg/mL.

B5: Clone 2 (AB2) (antibody, human IgG1, V domains shown)
VH: EVQLLESGGGLVQPGGSLRLSCAASGFTFSSQAMSWVRQAPGKGLEWVSSIPPGGPNTKYADSVKGRFTISRDNSKNTLYLQMNSLRAEDTAVYYCAKSYPSFDYWGQGTLVTVSS
VL: DIQMTQSPSSLSASVGDRVTITCRASQSISSYLNWYQQKPGKAPKLLIYAASPLQSGVPSRFSGSGSGTDFTLTISSLQPEDFATYYCQQVARTPNTFGQGTKVEIK
notes: Expressed as a full antibody in 293F cells, protein A purified; also called AB2 (L2 + H1); AB2: L2 + H1
Consider B5, for which the “migration rate of T cells in response” value in [10] was about 2 fold higher than vehicle. Besides, in test [9], the EC50 stood at 0.0148 µg/mL.

B6: Clone 8 (AB8) (antibody, human IgG1, V domains shown)
VH: EVQLLESGGGLVQLGGSLRLSCAASGFTFSSQAMSWVRQAPGKGLEWVSSIPPGGPNTKYADSVKGRFTISRDNSKNTLYLQMNSLRAEDTAVYYCAKSYPSFDYWGQGTLVTVSS
VL: DIQMTQSPSSLSASVGDRVTITCRASQSISSYLNWYQQKPGKAPKLLIYNASDLQSGVPSRFSGSGSGTDFTLTISSLQPEDFATYYCQQSSRTPTTFGQGTKVEIK
notes: Expressed as a full antibody in 293F cells, protein A purified; also called AB8 (L1 + H7); AB (L1 + H7)
With B6, the “migration rate of T cells in response” value in test [10] is about 2 fold higher than vehicle. In addition, the EC50 in test [9] was found to be 0.0117 µg/mL.

B7: Clone 9 (AB9) (antibody, human IgG1, V domains shown)
VH: EVQLLESGGGLVQPGGSLRLSCAASGFTFSSYAMSWVRQAPGKGLEWVSSIYTSGAATTYADSVKGRFTISRDNSKNTLYLQMNSLRAEDTAVYYCAKSYPSFDYWGQGTLVTVSS
VL: DIQMTQSPSSLSASVGDRVTITCRASQSISSYLNWYQQKPGKAPKLLIYNASDLQSGVPSRFSGSGSGTDFTLTISSLQPEDFATYYCQQSSRTPTTFGQGTKVEIK
notes: Expressed as a full antibody in 293F cells, protein A purified; also called AB9 (L1 + H8); AB9: L1 + H8
Take B7: the binding result in test [11] was “no binding”.

For orientation: EC50 means the concentration needed to bring the measured effect to its halfway point.
